Measured values reported in article PMC8892499.
Read-outs that look alike come from different tables or passages of the source. Each block holds one molecule with its values, some of them ahead of it.

Key:
[1] = target: OmpX_(1,149), double-cysteine variant of outer membrane protein X, labeled with FRET donor and acceptor dyes, unfolded (uOmpX) (UniProt P0A917); experiment: single-molecule FRET (smFRET) titration, intramolecular FRET of labeled uOmpX; as the titration at 37 °C, but at 25 °C: 20 pM labeled uOmpX in buffer with Skp3 or SurA; 20 mM Tris-HCl pH 8.0, 150 mM NaCl; Hill coefficient set to 1 (Skp3) and 1.5 (SurA)
[2] = target: OmpX_(1,149), double-cysteine variant of outer membrane protein X, labeled with FRET donor and acceptor dyes, unfolded (uOmpX) (UniProt P0A917); experiment: single-molecule FRET (smFRET) titration, intramolecular FRET of labeled uOmpX; 20 pM labeled uOmpX diluted from 6 M GdmCl into buffer with chaperone (Skp3 from 0.5 nM to 2.5 µM; SurA 46 nM to 25 µM); 20 mM Tris-HCl pH 8.0, 150 mM NaCl, 6 mM GdmCl, 87.5 nM LDAO; 37 °C; bound fraction from three Gaussian distributions; Hill coefficient set to 1 (Skp3) and 1.5 (SurA)
[3] = target: OmpX_(1,149), double-cysteine variant of outer membrane protein X, labeled with FRET donor and acceptor dyes, unfolded (uOmpX) (UniProt P0A917); experiment: single-molecule FRET (smFRET) titration, intramolecular FRET of labeled uOmpX; global analysis of FRET efficiency distributions at different chaperone concentrations and temperatures (25, 31, 37 °C); ΔH and ΔS from the temperature dependence of Ka; errors by bootstrapping
[4] = target: OmpX_(1,149), double-cysteine variant of outer membrane protein X, labeled with FRET donor and acceptor dyes, unfolded (uOmpX) (UniProt P0A917); experiment: as above; remark: listed apart in the source
[5] = target: OmpX_(1,149), double-cysteine variant of outer membrane protein X, labeled with FRET donor and acceptor dyes, unfolded (uOmpX) (UniProt P0A917); experiment: single-molecule FRET (smFRET) titration, intramolecular FRET of labeled uOmpX; 20 pM labeled uOmpX diluted from 6 M GdmCl into buffer with chaperone (Skp3 from 0.5 nM to 2.5 µM; SurA 46 nM to 25 µM); 20 mM Tris-HCl pH 8.0, 150 mM NaCl, 6 mM GdmCl, 87.5 nM LDAO; 37 °C; bound fraction from three Gaussian distributions; Hill coefficient set to 1 (Skp3) and 1.5 (SurA); remark: listed apart in the source

Molecule: survival factor A (SurA) (from UniProt P0ABZ6 21-428) (natural protein)
Kd [1]: 1000 nM | c1/2 (inverse of Ka) [1]: 103 nM | Kd [2]: 8200 nM | c1/2 (inverse of Ka) [2]: 407 nM | percent of uOmpX molecules bound at ~6 µM SurA [2]: 87% | dH [3]: -31.5 kcal/mol

Kd [1]: 3.6 nM | c1/2 (inverse of Ka) [1]: 3.55 nM | dH [4]: -71.2 kcal/mol | Kd [5]: 359 nM | c1/2 (inverse of Ka) [5]: 359 nM | percent of uOmpX molecules bound at 2.5 µM Skp3 [5]: 80%
B1: 17-kilodalton protein (Skp), trimer (Skp3) (natural protein)
chain: ADKIAIVNMGSLFQQVAQKTGVSNTLENEFKGRASELQRMETDLQAKMKKLQSMKAGSDRTKLEKDVMAQRQTFAQKAQAFEQDRARRSNEERGKLVTRIQTAVKSVANSQDIDLVVDANAVAYNSSDVKDITADVLKQVK
